assay: yeast display, Sf9 membrane polyspecificity reagent, FACS + sequencing; frameworks hold sequencing errors
Outline: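 A synthetic nanobody library was expressed on Saccharomyces cerevisiae BJ5465 by galactose induction for 36–48 hours. The library was stained for 1 hour at 4 °C with 10% biotinylated, detergent-solubilized Sf9 membrane reagent and enriched with streptavidin microbeads before FACS. Low and high (top ~1%) gates were set on anti-HA fluorescence for expression and streptavidin fluorescence for reagent binding, and each polyreactivity label reflects the gate of origin.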

Sequence | polyreactivity (PSR sort gate)
QVQLVESGGGLVQAGGSLRLSCAASGRIFQQNGMGWYRQAPGKERELVAGINSGVGTNYADSVKGRFTISRDNAKNTVYLQRNSLKPEDTAVYYCAKSQPSYSGDRDYWGPGTQVTVSS | low polyreactivity
QVQLVESGGGLVQAGGSLRLSCAASGRIFQRNAMGWYRLAPGKERELVAAITSTGVRTYYADSVKGRFTISRDNAKNTVYLQLNSLKPEDTAVYYCAVRGERRYIYDYWGQGTQVTVSS | high polyreactivity
QVQLVESGGGLVQAGGSLRLSCAASGRIFQRNVMGWYRQAPGKERELVASITGGGTTNYADSVKGRFTISRDNAKNTVYLQMNSLKPEDTAVYYCAKGYGASNDPGYVRKRYGYWGQGTQVTVSS | low polyreactivity
QVQLVESGGGLVQAGGSLRLSCAASGRIFQTYTMGWYRQAPGKERELVARITGGDSTYYADSVKGRFTISRDNAKNTVYLQMNSLKPEDTAVYYCAGEVWSYWGTFNYWGQGTQVTVSS | low polyreactivity
QVQLVESGGGLVQAGGSLRLSCAASGRIFQWNAMGWYRQAPGKERELVATISSRGGSTYYADSVKGRFTISRDNANNTVYLQMNSLKPEDTAVYYCAARYYAKYRSYDYWGLGTQVTVSS | high polyreactivity
QVQLVESGGGLVQAGGSLRLSCAASGRIFQYNAMGWYRQAPGKERELVAAISNSDSTNYADSVKGRFTISRDNAKNTDYLQLNRVKPEDTAVYYCARRYYFYRWVIPDYDYWGQGTQVTVSS | low polyreactivity
QVQLVESGGGLVQAGGSLRLSCAASGRIFQYNVMGWYRKAPGKERELVASISDGVGTNYADSVKGRFTISRDNAKNTVYLQMNSLKPEDTAVYYCARDLDPGYQYTGPYDYWGQGTQVTVSS | low polyreactivity
QVQLVESGGGLVQAGGSLRLSCAASGRIFQYNVMGWYRQAPGKERELVAAISSGGNTYYADSVKGRFTISRDNAKNTVNLPMNSLKPEDTAVYYCAADHYVPWPNYDYDYWGQGTQVTVSS | low polyreactivity
QVQLVESGGGLVQAGGSLRLSCAASGRIFQYYAMGWYRPAPGKEREFVAAISDSGSNTYYADSVMGRFTISRDNAKNTVYLQMNSLKPEDTAVYYSAALYATRALFYYWGQGTQGTVSS | low polyreactivity
QVQLVESGGGLVQAGGSLRLSCAASGRIFQYYAMGWYRQAPGKERELVAAISSRGGSTSYADSVKGRFTISRDKAKNTVYLQMNSLKPEDTAVYYCNAKSRISYWYDYWGQGTQVTVSS | high polyreactivity
QVQLVESGGGLVQAGGSLRLSCAASGRIFQYYAMGWYRQAPGKERELVAAITRSGGRTYYADSVKGRFTISRDNAKNTVYLQMYSLKPEDTAVYYCAASQRYSVIYYGFSEYDYWGQGTQVTVSS | high polyreactivity
QVQLVESGGGLVQAGGSLRLSCAASGRIFQYYVMGWYRQAPGKERELVAAITSGGGTKYADSVKGRFTISRDNAKNTVYLQMIRLKPEDTAVYYCAAAWFDQYSRYDYWGQCTQVTVSS | low polyreactivity
QVQLVESGGGLVQAGGSLRLSCAASGRIFRANAMGWYRQAPGKEGELVAAISRSAGSTYYADSVKGRFTISRDKAKNTVYLQMNSLKPEDTAVYYCAAVVRNPGTYDYWGQGTQVTVSS | high polyreactivity
QVQLVESGGGLVQAGGSLRLSCAASGRIFRAYAMGWYRQAPGKERELVASISRSGGSTYYADSVKGRFTISRDNSKNTVYLQMYSLKPEDTAVYYCAAVQPVGLYPRTKYYYCGQGTQVTVSS | high polyreactivity
QVQLVESGGGLVQAGGSLRLSCAASGRIFRAYVMGWYRQAPGKEREYVAAITRSGGSTYYADSVKGRFTISRDNAKNTVYLQMNSLKPEDTAVYYCAAPVYLYGTVGRGDYWGQGTQVTVSS | high polyreactivity
QVQLVESGGGLVQAGGSLRLSCAASGRIFRDYGMGWYRQAPGKERELVAAINTSGRTYYADSVKGRFTISRDNAKNTVYLQMNSLKPEDTAVYYCATTSRELGELRIFDYWGQGSQVTVSS | low polyreactivity

Sequence | polyreactivity (PSR sort gate)
QVQLVESGGGLVQAGGSLRLSCAASGRIFRFYAMGWSSQAPGKERELVAAISTSGRTNYADSVKGRFTISRDNAKNTVYLQMNSLKPEDTAVYYCAAGTVLQGWSGAYGYWGQGTQVTVSS | high polyreactivity
QVQLVESGGGLVQAGGSLRLSCAASGRIFRFYAMGWYRHPPGKERELVAAIRRGGSTTYADSVKGRFTISRDNAKNTVYLQMNSLKPEDTAVYYCAATQYYRGYDYWGQGTQVTVSS | high polyreactivity
QVQLVESGGGLVQAGGSLRLSCAASGRIFRFYAMGWYRPAPGKERELVAAISSRGGSTYYADSVKGRFTISRDNAKNTDYFQMNSLKPEDTAVYYCNAYGSTSQMDYWGQGTQVTVSS | high polyreactivity
QVQLVESGGGLVQAGGSLRLSCAASGRIFRFYAMGWYRQAPGKERELVAAINSRGGSTYYADSVKGRFTISRDNAKNTVYLQMNSLKPEDTAFYYCNARSGFGYGYGYWGQGTQVTVSS | high polyreactivity
QVQLVESGGGLVQAGGSLRLSCAASGRIFRFYAMGWYRQAPRKERELVATIRRGDSTSYADSVKGRFTISRDNAKNTVYLQMNSLKPEDTAVYYCAAVWPSHVGTTYFWHKYGYWGQGTQVTVSS | high polyreactivity
QVQLVESGGGLVQAGGSLRLSCAASGRIFRGYAMGWSRQAPGKERELVAVISYSGTRTYYADSVKGRFTISRDNAKNTVYLQMNSLKPEDTAVYYCNARANGFKDGYWGQGTQVTVSS | high polyreactivity
QVQLVESGGGLVQAGGSLRLSCAASGRIFRGYAMGWYRQAPGKEREFVAAITKNGGSTYYADSVKGRFTISRDNAKNTVYLQMHSLKPEDTAVYYCAVRAWDPYTGKSDYWGQGTQVTVSS | low polyreactivity
QVQLVESGGGLVQAGGSLRLSCAASGRIFRGYAMGWYRQAPGKERELVAAINGGDSTYADSVKGRFTISRDNAKNTVFLQMNSLIPEDTAVYYCAAAHYFLGPQGASFYYWGQGTQVTVSS | low polyreactivity
QVQLVESGGGLVQAGGSLRLSCAASGRIFRGYAMGWYRQAPGKERELVAAISGRGGRTNYADSVKGRFTISRDNAKNTVYLQMNSLKPEDTAVYYCATVPYTASRYEYWGQGTQVTVSS | high polyreactivity
QVQLVESGGGLVQAGGSLRLSCAASGRIFRGYAMGWYRQAPGKERELVAAISRRGGSTSYADSVKGRFTISRDNAKNTVYLQMNSLKPEDTAVYYCAVDYSKNGDDYWGQGTQVTVSS | high polyreactivity
QVQLVESGGGLVQAGGSLRLSCAASGRIFRGYGMGWYSQAPGKERVLVAAITSRGGSTYYADSVKGRFTSSRDNAKNTVYLQMNSLKPQDTAVYYCYAVAFYYVGSKTYTRGLDYWGQGTQVTVSS | high polyreactivity
QVQLVESGGGLVQAGGSLRLSCAASGRIFRGYVMGWYRQAPGKERELVAAISSSGGSTYYADSVKGRFTISRDNAKNTVYLQMNSLKPEDTAVYYCAAAKWFFYGRKYGKYDYWGQGTQVTVSS | high polyreactivity
QVQLVESGGGLVQAGGSLRLSCAASGRIFRGYVMGWYRQAPGKERELVARITKSGGRTYYADSVKGRFTISRDNAKNTVYLQMNSLKPEDTAVYYCNTAWTGYPRYQYGGNYWGQGTQVTVSS | high polyreactivity
QVQLVESGGGLVQAGGSLRLSCAASGRIFRHNAMGWYRQAPGKERELVAAISGGGTTYYADSVKGRFTISRDNAKNTVYLQMNSVKPEDTAVYYCAARRRGSVGVGYAYPYNYWGQGTQVTVSS | high polyreactivity
QVQLVESGGGLVQAGGSLRLSCAASGRIFRHYAMGWYRQAPGKERELFAAIDWDGDTTYYADSVKGRFTISRDNAKNTVYLQMNSLKPEDNAVSYCAAEFYSLGKAIYEYWGQGTQVTVSS | high polyreactivity
